From paper PMC4374960 (2015)

B1: CarDNt, the 179-residue N-terminal domain of Myxococcus xanthus CarD (in pKT25) [Myxococcus xanthus] / Mxβ_(19–148), M. xanthus RNA polymerase β subunit fragment spanning residues 19 to 148 (in pUT18C) [Myxococcus xanthus] (parent complex)
chain 1: MPEGSASLQLAVGDRVVYPNQGVCRVSAIDVKEVAGQKLTFVTMRREEDGAVVMVPEGKVLAIGVRKVASAEDVEAIFTFLRSDSDKADLDWKQRARTNLDRMTQGGIMGLAEVVKGLQVLSELRPLPTKERELYDNARHLLVTEVAAALGTAEVNAEDAIDIVLFPPGRERPKRTAAE
chain 2: AKIIDIPNLINIQKQSYEKFLQADIAADKREDLGLQGVFKSVFPIRDFNETSSLEFVSYHLERPKYDVDECHQRGMTYSAPIKVVVRLVVWDKDEETGAQSIRDVKEQEVYFGEIPLMTQNGTFIINGTE

Variants of: B1
Test: BACTH analysis (β-Gal activity); Mxβ19–148 mutants in pUT18C; CarDNt in pKT25; mean and standard error of three independent experiments; parent: 2.6e+03; read off a plot

response | Variant
~1800 | chain 2 D104A
~610 | chain 2 V105A
~2100 | chain 2 K106A
~90 | chain 2 E107A

Variants of: B1
Test: BACTH analysis (β-Gal activity); CarDNt mutants in pKT25; Mxβ19–148 in pUT18C; mean and standard error of three independent experiments; parent: 2.7e+03; read off a plot

response | Variant
~130 | chain 1 F41A
~130 | chain 1 M54A
~230 | chain 1 P56A
